system: Escherichia coli TOP10; assay: shrunken log2 fold change of peptide-encoding DNA abundance (4.5 h post-induction vs induction); higher = less antimicrobial activity (less host growth inhibition); conditions: time post-induction: 4.5 h; library: site-saturation at positions 5, 18, 19, 20
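Note: peptides expressed intracellularly from a pBAD plasmid library in pooled LB shake-flask culture, induced with 0.3% L-arabinose, DNA abundance read by NGS, three biological replicates, DESeq2 with apeglm shrinkage.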

Sequence	shrunken log2 fold change
RRIRARPPRLPRPRPRPSVSPRP	-0.457
RRIRSRPPRLPRPRPRPKTVPRP	0.0369
RRIRGRPPRLPRPRPRPMWFPRP	0.185
RRIRPRPPRLPRPRPRPNRKPRP	-0.371
RRIRTRPPRLPRPRPRPCHEPRP	-0.0167
RRIRIRPPRLPRPRPRPCWHPRP	-0.428
RRIRGRPPRLPRPRPRPEYVPRP	0.244
RRIRERPPRLPRPRPRPYGKPRP	-0.00133
RRIRDRPPRLPRPRPRPQWMPRP	-0.176
RRIRVRPPRLPRPRPRPFIHPRP	-0.104
RRIRFRPPRLPRPRPRPMDHPRP	-0.131
RRIRTRPPRLPRPRPRPGNGPRP	-0.222
RRIRVRPPRLPRPRPRPMWYPRP	-0.62
RRIRERPPRLPRPRPRPYIVPRP	0.00789
RRIRERPPRLPRPRPRPNHIPRP	-0.42
RRIRTRPPRLPRPRPRPGYEPRP	-0.0417
RRIRHRPPRLPRPRPRPVLVPRP	-0.0156
RRIRPRPPRLPRPRPRPIHGPRP	-0.00809
RRIRQRPPRLPRPRPRPVTLPRP	-0.153
RRIRCRPPRLPRPRPRPAYWPRP	0.293
RRIRNRPPRLPRPRPRPGHYPRP	-0.171
RRIRYRPPRLPRPRPRPPIDPRP	-0.35

Sequence	shrunken log2 fold change
RRIRKRPPRLPRPRPRPSDGPRP	0.178
RRIRYRPPRLPRPRPRPRWNPRP	-0.102
RRIRQRPPRLPRPRPRPVRHPRP	-0.0023
RRIRFRPPRLPRPRPRPHFEPRP	-0.185
RRIRDRPPRLPRPRPRPNILPRP	-0.437
RRIRSRPPRLPRPRPRPQSFPRP	-0.0939
RRIRIRPPRLPRPRPRPANGPRP	0.0224
RRIRVRPPRLPRPRPRPCEYPRP	-0.00327
RRIRGRPPRLPRPRPRPQGEPRP	0.327
RRIRPRPPRLPRPRPRPYIQPRP	-0.375
RRIRHRPPRLPRPRPRPPFRPRP	0.141
RRIRRRPPRLPRPRPRPWSPPRP	0.186
RRIRARPPRLPRPRPRPEQQPRP	0.785
RRIRWRPPRLPRPRPRPGRNPRP	-0.000528
RRIRKRPPRLPRPRPRPWMRPRP	0.373
RRIRSRPPRLPRPRPRPWAKPRP	-0.00197
RRIRPRPPRLPRPRPRPNLCPRP	0.138
RRIRDRPPRLPRPRPRPMFEPRP	0.0172
RRIRCRPPRLPRPRPRPGYVPRP	-0.0932
RRIRHRPPRLPRPRPRPPKEPRP	0.121
RRIRDRPPRLPRPRPRPAHCPRP	-0.0402
RRIRKRPPRLPRPRPRPGTKPRP	0.0906

Sequence	shrunken log2 fold change
RRIRKRPPRLPRPRPRPRPTPRP	1.04
RRIRSRPPRLPRPRPRPTMYPRP	-0.247
RRIRRRPPRLPRPRPRPAREPRP	0.925
RRIRYRPPRLPRPRPRPPFEPRP	-0.0385
RRIRRRPPRLPRPRPRPGHKPRP	0.0528
RRIRYRPPRLPRPRPRPEMCPRP	-0.238
RRIRDRPPRLPRPRPRPSGIPRP	-0.0212
RRIRARPPRLPRPRPRPTTHPRP	0.38
RRIRHRPPRLPRPRPRPDHGPRP	-0.115
RRIRMRPPRLPRPRPRPGCMPRP	0.968
RRIRLRPPRLPRPRPRPYDKPRP	-0.951
RRIRGRPPRLPRPRPRPCICPRP	0.102
RRIRMRPPRLPRPRPRPLGTPRP	1.31
RRIRWRPPRLPRPRPRPPQEPRP	0.567
RRIRCRPPRLPRPRPRPTTLPRP	-0.219
RRIRCRPPRLPRPRPRPMQLPRP	-0.239
RRIRKRPPRLPRPRPRPPQTPRP	0.559
RRIRLRPPRLPRPRPRPHMLPRP	-0.264
RRIRARPPRLPRPRPRPTIIPRP	-0.0837
RRIRRRPPRLPRPRPRPKWSPRP	0.457
RRIRYRPPRLPRPRPRPRFHPRP	-0.939
RRIRCRPPRLPRPRPRPQCHPRP	0.134

Sequence	shrunken log2 fold change
RRIRLRPPRLPRPRPRPNMAPRP	-0.511
RRIRVRPPRLPRPRPRPYHRPRP	-2.18
RRIRIRPPRLPRPRPRPTTKPRP	-0.664
RRIRDRPPRLPRPRPRPPNFPRP	0.0198
RRIRPRPPRLPRPRPRPQVYPRP	0.962
RRIRVRPPRLPRPRPRPQMSPRP	-0.233
RRIRARPPRLPRPRPRPMQLPRP	0.206
RRIRYRPPRLPRPRPRPCYVPRP	-0.0553
RRIRCRPPRLPRPRPRPNMCPRP	-0.222
RRIRWRPPRLPRPRPRPVGEPRP	1.01
RRIRLRPPRLPRPRPRPICEPRP	0.0628
RRIRERPPRLPRPRPRPCDLPRP	-0.01
RRIRLRPPRLPRPRPRPMMDPRP	-0.0843
RRIRERPPRLPRPRPRPMHTPRP	0.102
RRIRFRPPRLPRPRPRPDVCPRP	-0.1
RRIRHRPPRLPRPRPRPTVCPRP	0.196
RRIRKRPPRLPRPRPRPFFRPRP	0.0596
RRIRNRPPRLPRPRPRPGVQPRP	0.444
RRIRYRPPRLPRPRPRPYWDPRP	-0.483
RRIRTRPPRLPRPRPRPFGQPRP	-0.0675
RRIRHRPPRLPRPRPRPDWCPRP	-0.00101
RRIRPRPPRLPRPRPRPFLHPRP	-0.273

Sequence	shrunken log2 fold change
RRIRWRPPRLPRPRPRPPQLPRP	0.462
RRIRTRPPRLPRPRPRPFYEPRP	-0.518
RRIRDRPPRLPRPRPRPVEIPRP	-0.0399
RRIRYRPPRLPRPRPRPGWEPRP	-0.143
RRIRSRPPRLPRPRPRPQCCPRP	-0.312
RRIRDRPPRLPRPRPRPTGDPRP	0.209
RRIRLRPPRLPRPRPRPLHAPRP	0.261
RRIRARPPRLPRPRPRPSSPPRP	0.0282
RRIRPRPPRLPRPRPRPISFPRP	-0.101
RRIRFRPPRLPRPRPRPDDMPRP	-0.0994
RRIRARPPRLPRPRPRPKMTPRP	0.365
RRIRIRPPRLPRPRPRPWWQPRP	0.0732
RRIRIRPPRLPRPRPRPYGWPRP	-0.0644
RRIRQRPPRLPRPRPRPDATPRP	0.495
RRIRKRPPRLPRPRPRPAANPRP	0.647
RRIRCRPPRLPRPRPRPGNVPRP	-0.357
RRIRHRPPRLPRPRPRPQFVPRP	-0.163
RRIRHRPPRLPRPRPRPCSFPRP	-0.309
RRIRTRPPRLPRPRPRPHDMPRP	0.000904
RRIRTRPPRLPRPRPRPDDTPRP	-0.12
RRIRQRPPRLPRPRPRPFKQPRP	-0.24

Reference: the supplement of paper PMC9112550, “Optimization of the antimicrobial peptide Bac7 by deep mutational scanning” (BMC Biology, 2022)
